This test has as its target T1, recombinant human MAS1 receptor (human), P04201.
T1 chain: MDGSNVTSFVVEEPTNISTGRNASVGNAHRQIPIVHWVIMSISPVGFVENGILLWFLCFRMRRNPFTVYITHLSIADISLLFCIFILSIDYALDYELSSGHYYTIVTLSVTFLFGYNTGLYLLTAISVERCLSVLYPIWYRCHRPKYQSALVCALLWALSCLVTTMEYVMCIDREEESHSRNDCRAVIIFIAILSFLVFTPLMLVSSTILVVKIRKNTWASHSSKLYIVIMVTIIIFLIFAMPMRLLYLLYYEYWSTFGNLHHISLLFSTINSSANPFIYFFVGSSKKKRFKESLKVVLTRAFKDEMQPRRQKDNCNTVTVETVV
Kind of test: cell-based or functional assay.

Experimental findings from patent US20190359674A1 are described below.

Positions of bridges follow the written chain, without caps; N, C: chain ends. Non-standard residues stand in square brackets, D forms with d. Dap = NC[C@H](N)C(=O)O

B1: cyclotide MCo-AT1-7 (designed binder)
chain: GGVCPKILQRCRRDSDCPGACICRGNGYCGSG[Dap]RVYIHE-OH
modifications: disulfide 11-23, 17-29, 4-21; lactam N-39 (inferred); also: Gly32 joined to Dap33 β-amino group by isopeptide bond, Dap33 α-amino group free
With B1, the activity in the MAS1 activation (NO release) assay relative to peptide AT1-7, at 10 nM (% of AT1-7 activity) worked out at 90.
